The source of these data is patent US20250346673A1 (DUALITY BIOLOGICS SUZHOU, published 2025).

Substitutions are numbered along the chain they refer to.

Experiment [1] concerns the target T1, human BDCA2 (human, UniProt Q8WTT0 1-213).
T1 construct: whole, on cells; also called hBDCA2; Blood dendritic cell antigen 2
T1 sequence (looked up): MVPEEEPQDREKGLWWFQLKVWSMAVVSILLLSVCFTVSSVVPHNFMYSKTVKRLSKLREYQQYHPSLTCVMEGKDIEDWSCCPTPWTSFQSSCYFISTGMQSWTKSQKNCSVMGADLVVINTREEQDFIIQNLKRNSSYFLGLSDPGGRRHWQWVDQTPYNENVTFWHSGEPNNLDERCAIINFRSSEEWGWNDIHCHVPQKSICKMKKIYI
Kind of experiment: FACS on CHOK1-hBDCA2 cells; EC50 table under the plot, unit from the x axis (nM) [continued) d.]. How it is done: (§1) The cells were recovered and resuspended to 2×10⁶/mL with FACS buffer (PBS+2% FBS). The cells were added to 3799 cell plates (Corning) at 100 μL/well, and the supernatant was discarded after centrifugation at 300 g. The antibodies were serially diluted with FACS buffer (Id.), the diluted antibodies were added to centrifuged cells and the cells were resuspended. The cells were incubated at 4° C. for 1 h. The incubated cells were then centrifuged at […] for 5 min and washed twice with FACS buffer. 100 μL Donkey anti-Mouse IgG (H+L) Highly Cross-Adsorbed Secondary Antibody-Alexa Fluor 488 (Invitrogen, A21202; 1:1000) secondary antibody was added to the cells, which were washed twice with FACS buffer after incubation at 4° C. for 1 h, resuspended with PBS, analyzed with FACS (BD FACS CantoTM II) instrument. The curve was fitted with GraphPad Prism6, and EC₅₀ values were calculated.

Experiment [2] has as its target T1, human BDCA2. The experiment is described as follows: cell-based or functional assay.
Experiment [3] addresses T2, cynomolgus BDCA2 (cynomolgus monkey, UniProt A0A2K5UWP4 1-212).
T2 construct: whole, on cells; also called Cyno BDCA2; cynoBDCA2
T2 sequence: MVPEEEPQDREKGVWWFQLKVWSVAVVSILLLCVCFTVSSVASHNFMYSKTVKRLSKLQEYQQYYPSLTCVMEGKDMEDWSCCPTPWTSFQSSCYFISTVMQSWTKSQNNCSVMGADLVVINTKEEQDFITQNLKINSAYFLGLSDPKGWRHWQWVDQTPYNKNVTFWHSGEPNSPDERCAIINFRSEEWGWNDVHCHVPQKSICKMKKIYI
The experiment is described as follows: FACS on 293F-cynoBDCA2 cells; EC50 table under the plot, unit from the x axis (nM) [continued) d.]. How it is done:
as §1

The target in the next experiment is T3, human FcγRIIA (H167) (human, UniProt P12318 36-218, limits assumed, biotinylated (site not stated)).
T3 construct: also called Fey RIIA (H167)
T3 sequence (looked up): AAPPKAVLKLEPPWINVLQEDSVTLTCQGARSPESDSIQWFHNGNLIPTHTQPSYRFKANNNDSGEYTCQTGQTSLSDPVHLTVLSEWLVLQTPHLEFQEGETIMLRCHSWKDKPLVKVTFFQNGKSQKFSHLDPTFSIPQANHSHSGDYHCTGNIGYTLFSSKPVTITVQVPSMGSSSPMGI
Kind of experiment: SPR (BIAcore 8K), biotinylated FcγRIIA (H167) on SA chip, antibody as analyte, 1:1 binding. The protocol: (§2) Antibody kinetics or affinity parameters were measured using BIAcore 8K and freshly fixed biotinylated human Fe γ RIIA(R167)/Fc γ RIIA (H167) SA chips. The experiment was run at 25° C. with a running buffer of 1×HBS-EP+(10 mM HEPES pH 7.4, 150 mM NaCl, 3 mM EDTA, 0.05% Surfactant P20). […] The binding and dissociation times of the antibody were 60 and 90 seconds, respectively. Two zero concentration samples are used to remove background signals. The sample was injected in a multi cycle manner, the analyte can be fully dissociated from the chip surface at the end of each cycle, and no regeneration step was applied. Data analysis was perform using Biacore Insight Evaluation Software (Version 2.0.15.12933). After deducting the reference channel (flow cell 1) and two zero concentration signals, affinity analysis was performed using a 1:1 binding model or steady-state model for curve fitting and calculation of kinetic parameters.
For orientation: In SPR one partner is held on a chip, and binding of the other changes the refractive index at the surface.

Another experiment addresses T4, Recombinant Human BDCA2 (human, UniProt Q8WTT0 45-213, limits assumed).
T4 construct: also called hBDCA2 (SPR analyte); human BDCA2 antigen
T4 sequence (looked up): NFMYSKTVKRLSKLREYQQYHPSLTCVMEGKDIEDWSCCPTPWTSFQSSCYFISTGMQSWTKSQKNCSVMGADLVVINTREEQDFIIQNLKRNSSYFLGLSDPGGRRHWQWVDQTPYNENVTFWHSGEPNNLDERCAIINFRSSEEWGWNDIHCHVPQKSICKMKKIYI
The experiment is described as follows: SPR (BIAcore), antibody captured by anti-human IgG (Fc), hBDCA2 as analyte, 1:1 model. The protocol: Then 1 M ethanolamine was injected at 10 μL/min flow rate for 420 seconds, and the excess active carboxyl groups on chip were blocked. The humanized antibodies were injected into a detection channel flow cell at flow rate of 10 μL/min for 60 s for capture after diluting to 1 μg/mL using running buffer. […] The sample hBDCA2 to be tested of each concentration gradient was injected into the detection channel at 30 μL/min flow rate, two samples at 0 concentration were used to remove background signal. The binding and dissociation times between antigen and antibody were 180 and 400 sec, respectively. An analysis of data was performed using Biacore Insight Evaluation Software (Version 2.0. 15.12933). A 1:1 binding model was selected for curve fitting and kinetic parameters were calculated after subtraction of signal of the reference channel (flow cell 1) and at 0 concentration.

In another experiment the target is T5, human FcγRIIA (R167) (human, UniProt P12318 36-218, limits assumed, biotinylated (site not stated)).
T5 construct: also called Fe γ RIIA(R167); Fcγ RIJA (R167)
T5 sequence (looked up): T3 sequence (looked up) with H132R
The experiment is described as follows: SPR (BIAcore 8K), biotinylated FcγRIIA (R167) on SA chip, antibody as analyte, 1:1 binding. The protocol:
as §2

For experiment [4], the target named is T1, human BDCA2. The experiment is described as follows: FACS, CHOK1-humanBDCA2 cells. The protocol:
(§3) The cells were recovered and resuspended to 2×10⁶/mL with FACS buffer (PBS+2% FBS). The resuspended cells were added to 3799 cell plates at 100 μL/well, and the supernatant was discarded after centrifugation at 300 g. […] The cells were incubated at 4° C. for 1 h. The incubated cells were centrifuged at […] for 5 min and washed twice with FACS buffer. 100 μL Goat anti-Human IgG (H+L) Cross-Adsorbed Secondary Antibody, Alexa Fluor 488 (Sigma, A11013; 1:1000) secondary antibody was added, washed twice with FACS buffer after incubation at 4° C. for 1 h. The cells were resuspended with PBS, then the fluorescence signal of antibodies bound to cell surface was analyzed with FACS (BD FACS CantoTM II) instrument and curves were fitted with GraphPad Prism6 to calculate EC₅₀ values for antibodies binding to BDCA2 antigen.

In experiment [5] the target is T2, cynomolgus BDCA2. The experiment is described as follows: FACS, 293F-cynoBDCA2 cells. How it is done:
as §3

The target in experiment [6] is T1, human BDCA2. Kind of experiment: cell-based or functional assay. This is another data set of the same source.

B1: mAb030 (antibody, V domains shown)
VH: DVQLQESGPGLVKPSQSLSLTCSVTGYSITSAYYWNWIRQFPGNKLECMGYISYDGSNYYNPSLKNRISITRDTSKNQFFLSLNSVTTEDTATYFCVRGGDYDDGGFAYWGQGTLVTVSA
VL: DIQMTQSPASLSASVGETVTITCRASGNIHNYLAWYQQKQGKSPQLLVYNAKTLADGVPSRFSGSGSETQYSLKINSLQPEDFGNYFCQHFWIIPYTFGGGTKLEIK
notes: Mouse hybridoma antibody
The term EC50 denotes the concentration giving half of the maximal effect. Low values mean a more potent agent, high ones a less potent agent. Consider B1, for which the EC50 in the experiment with human BDCA2 [1] stood at 0.293 nM; with cynomolgus BDCA2 [3], 0.566 nM. Further, in the experiment with human BDCA2 [2], the “IC50 for inhibiting cytokine IFNα release, CpG-A stimulated human PBMC” value was 0.00476 nM.

B2: mAb021 (antibody, V domains shown)
VH: B1 VH with S53T, S57N, N61S, S82N, V97A, Y109F
VL: B1 VL with Q37H, T53S, A55V, E68G, K74R, N85S, F87Y, I94V, K107I
notes: Mouse hybridoma antibody
For the molecule B2, the EC50 with human BDCA2 [1] was found to be 0.328 nM; with cynomolgus BDCA2 [3], 0.566 nM. Further, the “IC50 for inhibiting cytokine IFNα release, CpG-A stimulated human PBMC” value with human BDCA2 [2] came out at 0.00405 nM.

B3: mAb027 (antibody, V domains shown)
VH: B1 VH with I38V, K45Q, S53T, Y59N, S82K, F95Y
VL: B1 VL with A55V, E68G, Q70E, N85I, K107R
notes: Mouse hybridoma antibody
Consider B3, for which the figures for the EC50 with human BDCA2 [1] and with cynomolgus BDCA2 [3] were 0.302 nM and 0.68 nM, respectively. Besides, the “IC50 for inhibiting cytokine IFNα release, CpG-A stimulated human PBMC” value with human BDCA2 [2] worked out at 0.07 nM.

B4: Hu033-20 (antibody, human IgG1, kappa)
heavy: not shown
light: DIVMTQSPDSLAVSLGERATINCRASESVSFRTSHLMHWYQQKPGQPPKLLIYGASNLESGVPDRFSGSGSGTDFTLTISSLQAEDVAVYYCQQSIEDPPTFGGGTKVEIKRTVAAPSVFIFPPSDEQLKSGTASVVCLLNNFYPREAKVQWKVDNALQSGNSQESVTEQDSKDSTYSLSSTLTLSKADYEKHKVYACEVTHQGLSSPVTKSFNRGEC
notes: Humanized IgG1, wild-type Fc; also called Hu033-20(BM3)
The Kd is the equilibrium constant for the complex coming apart. Broadly, the koff is a measure of how fast the partners let go of each other. As a reminder, the kon is a measure of how fast the partners come together. For B4, the Kd came to 981 nM with human FcγRIIA (H167), 0.268 nM with Recombinant Human BDCA2 and 578 nM in the experiment with human FcγRIIA (R167). The koff was 0.431 s⁻¹ in the experiment with human FcγRIIA (H167), 0.000149 s⁻¹ with Recombinant Human BDCA2 and 0.838 s⁻¹ with human FcγRIIA (R167). Moreover, the kon amounted to 439000 M⁻¹ s⁻¹ with human FcγRIIA (H167), 556000 M⁻¹ s⁻¹ in the experiment with Recombinant Human BDCA2 and 1.45e+06 M⁻¹ s⁻¹ with human FcγRIIA (R167). For the same molecule, the EC50 with human BDCA2 [4] stood at 0.64 nM; with cynomolgus BDCA2 [5], 1.22 nM. Also, in the experiment with human BDCA2 [6], the “EC50 (nM), inhibition of CpG-A stimulated IFNα release from human PBMC” value was determined as 0.01 nM.

B5: mAb020 (antibody, V domains shown)
VH: DVQLQESGPGLVKPSQSLSLTCSVTGYSIASGYYWNWIRQFPGNKLEWMGYISFDGTYNYNPSLKDRFSITRDTSKNQFFLKLNSVTTEDTATYYCARGVDYPNAIDWWGQGTSVTVSS
VL: DIVLTQSPASLAVSLGQRATISCRASESVSMHVTHLIHWYQQKPGQPPKLLIYVASNLESGVPARFSGSGSETDFTLNIHPVEEEDAATYFCQQSFEDPWTFGGGTKLEIK
notes: Mouse hybridoma antibody
Consider B5, for which the EC50 with human BDCA2 [1] is 0.707 nM; with cynomolgus BDCA2 [3], 1.9 nM. In the experiment with human BDCA2 [2], the “IC50 for inhibiting cytokine IFNα release, CpG-A stimulated human PBMC” value was 0.00615 nM.

B6: mAb024 (antibody, V domains shown)
VH: EVQLVESGGDLVKPGGSLKLSCAASGFTFSSFGMSWVRQTPDKRLDWVATISSGDSYTYYPDSVKGRFSISRDNAKNTLYLQMSSLKSEDTAVYYCARQIYYDYAYYFDYWGQGTTLTVSS
VL: B5 VL with M31F, H32R, V33S, T34S, I37M, Q41R, V54A, T89A, F96I, W100P
notes: Mouse hybridoma antibody
B6: the EC50 with human BDCA2 [1] was 0.343 nM; with cynomolgus BDCA2 [3] it was 1.04 nM. Besides, the “IC50 for inhibiting cytokine IFNα release, CpG-A stimulated human PBMC” value with human BDCA2 [2] was found to be 0.00274 nM.

B7: mAb022 (antibody, V domains shown)
VH: B5 VH with A30T, N104K, I106M
VL: B5 VL
notes: Mouse hybridoma antibody
B7: the EC50 came out at 0.723 nM with human BDCA2 [1] and 1.96 nM with cynomolgus BDCA2 [3]. For the same molecule, the “IC50 for inhibiting cytokine IFNα release, CpG-A stimulated human PBMC” value with human BDCA2 [2] was 0.00623 nM.

B8: mAb019 (antibody, V domains shown)
VH: EVKLVESGGDLVQPGGSLKLSCAASGFTFSDYYMYWVRQTPEKRLEWVAYISYSGDSTYYPDTVKGRFTISRDNAKNTLFLQMSRLKSEDTAMYYCARHSPSFPYYFDYWGQGTALTVSS
VL: EIVLTQSPAITAASLGQKVTITCSASSSVSYMHWYQQKSGTSPKPWIYEISKLASGVPARFSGSGSGTSYSLTISSMEAEDAAIYYCQLWNYPLITFGGGTNLEIK
notes: Mouse hybridoma antibody
B8: the results for the EC50 in the experiment with human BDCA2 [1] and with cynomolgus BDCA2 [3] were 0.271 nM and 0.485 nM, respectively. Besides, the “IC50 for inhibiting cytokine IFNα release, CpG-A stimulated human PBMC” value with human BDCA2 [2] was determined as 0.00332 nM.
